Data reported in patent publication US8372580B2, “BRCA1 function-based cellular assays” (Morehouse School of Medicine, priority 2008, dated 2013).
Changes are numbered by the printed parent chain. Names may count otherwise.

B1: BRCA1 (aa 1-182): amino-terminal BRCA1 fragment, residues 1-182, with N-terminal FLAG sequence (protein, UniProt P38398 1-182, looked up, fragment)
chain: MDLSALRVEEVQNVINAMQKILECPICLELIKEPVSTKCDHIFCKFCMLKLLNQKKGPSQCPLCKNDITKRSLQESTRFSQLVEELLKIICAFQLDTGLEYANSYNFAKKENNSPEHLKDEVSIIQSMGYRNRAKRLLQSEPENPSLQETSLSVQLSNLGTVRTLRTKQRIQPQKTSVYIEL
modifications: N-terminal FLAG tag
B2: BRCA1 (aa 1-182) Mutant #1: BRCA1 1-182 fragment point mutant 1; apparently K109R (protein, UniProt P38398 1-182, looked up, fragment K109R)
chain: B1 chain with K109R
B3: BRCA1 (aa 1-182) Mut#4: BRCA1 1-182 fragment point mutant 4; apparently C61G (protein, UniProt P38398 1-182, looked up, fragment C61G)
chain: B1 chain with C61G

These molecules were tested on ERα transcriptional activity in T47D breast cancer cells (assay: Cell based assay #2: ERE-luciferase reporter, E2-induced ERα activation by Ubc9 C93S). Details: Ubc9 C93S (SUMO-independent), E2 1 μM.
Description: T47D cells (5×10^5) were plated in 6-well plates for 24 hours. The cells were washed twice in PBS followed by the addition of phenol red free DMEM containing 5% charcoal-stripped FBS for 48 hrs before transfection. The cells were transfected with 1 μg of each of the indicated plasmids (with a total of 2.5 μg DNA) using lipofectamine 2000 (Life Technology, USA). The cells were induced with 1 μM of E2 4 hours after transfections, harvested after an additional 40 hrs and assayed for luciferase activity following the manufacturer's instructions. Each set of experiments was performed in triplicate and repeated a least three times.
With B1 the “inhibition of E2-mediated ERα transcription activation by Ubc9/C93S” value (from here on “inhibition”) was “inhibit E2-mediated ERα transcription activation by Ubc9/C93S”.
B2 was tested, and the “inhibition” value was “unlike their respective Mut #1 and Mut#4, inhibit”.
For B3, the “inhibition” value was “unlike their respective Mut #1 and Mut#4, inhibit”.
